For three molecules, ECL signal results are on record in patent publication US20120316071A1 (published 2012).

Assay [1] has as its target T1, rHuman EGF R/Fc Chimera, CF (R&D Systems Cat#344-ER) (human, UniProt P00533 25-645).
T1 construct: Bought reagent; also called epidermal growth factor receptor
Briefly: MSD multispot ECL, antigen spotted, Fab 9.3 nM; blank spot 287.

In assay [2] the target is T2, rHuman IGF-1 sR, (IGF-1 sR), CF (R&D Systems Cat#391-GR) (human, UniProt P08069 31-932).
T2 construct: Bought soluble receptor; also called insulin-like growth factor-1 soluble receptor
The assay is described as above.

The target of assay [3] is T3, rHuman CD44/Fc Chimera, CF (R&D Systems Cat#3660-CD) (human, UniProt P16070 21-220).
T3 construct: Bought reagent
The assay is described as above.

Assay [4] has as its target T4, Recombinant Human DLL4 (R&D Systems Cat#1506-D4/CF) (human, UniProt Q9NR61 27-524).
T4 construct: Bought recombinant protein; also called rHuman DLL4; delta-like protein 4
The assay is described as above.

Assay [5] concerns the target T5, rHuman HGF R/c-MET/Fc Chimera, CF (R&D Systems Cat#358-MT/CF) (human, UniProt P08581 25-932).
T5 construct: Bought reagent; also called HGF R/Fc; hepatocyte growth factor receptor
The assay is described as above.

The target of assay [6] is T6, rHuman Notch-1/Fc Chimera, CF (R&D Systems Cat#3647-TK) (human, UniProt P46531 19-526).
T6 construct: Bought reagent
Described as above.

In assay [7] the target is T7, Recombinant Human DLL4 (R&D Systems Cat#1506-D4/CF) (human, UniProt Q9NR61 27-524).
T7 construct: Bought recombinant protein; also called rHuman DLL4; delta-like protein 4
As to the kind of experiment: MSD Multispot ECL, antigen spotted on plate, Fab at 120 nM; blank spot 363.

Assay [8] deals with T8, rHuman CD44/Fc Chimera, CF (R&D Systems Cat#3660-CD) (human, UniProt P16070 21-220).
T8 construct: Bought Fc chimera; Fc part of the bought chimera not given
The assay is described as above.

For assay [9], the target named is T9, rHuman Notch-1/Fc Chimera, CF (R&D Systems Cat#3647-TK) (human, UniProt P46531 19-526).
T9 construct: Bought Fc chimera; Fc part of the bought chimera not given
The description is as above.

Assay [10] addresses T10, rHuman Erythropoietin R/Fc Chimera, CF (R&D Systems Cat#963-ER) (human, UniProt P19235 25-250).
T10 construct: Bought Fc chimera; also called EPO R/Fc; Epo R; Fc part of the bought chimera not given
T10 sequence (looked up): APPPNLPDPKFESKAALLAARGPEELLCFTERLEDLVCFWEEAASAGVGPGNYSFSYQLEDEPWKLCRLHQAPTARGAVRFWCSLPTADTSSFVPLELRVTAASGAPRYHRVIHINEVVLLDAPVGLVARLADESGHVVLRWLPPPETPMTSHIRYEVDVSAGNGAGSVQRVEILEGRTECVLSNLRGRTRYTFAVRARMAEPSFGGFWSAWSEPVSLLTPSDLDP
Described as above.

Assay [11] deals with T11, rHuman Erythropoietin R/Fc Chimera, CF (R&D Systems Cat#963-ER) (human, UniProt P19235 25-250).
T11 construct: Bought from R&D Systems; also called EPO R/Fc; Epo R/Fc chimera; not shown: Fc of the bought chimera
T11 sequence (looked up): T10 sequence (looked up)
Briefly: MSD multispot ECL, antigen spotted on plate, Fab 705 nM; blank spot 483.

The target of assay [12] is T12, rHuman P-Cadherin/Fc Chimera, CF (R&D Systems Cat#861-PC) (human, UniProt P22223 108-654).
T12 construct: Bought from R&D Systems; not shown: Fc of the bought chimera
The description is as above.

In assay [13] the target is T13, rHuman EGF R/Fc Chimera, CF (R&D Systems Cat#344-ER) (human, UniProt P00533 25-645).
T13 construct: Bought from R&D Systems; also called epidermal growth factor receptor (EGF R); not shown: Fc of the bought chimera
The assay is described as above.

Assay [14] addresses T14, rHuman HGF R/c-MET/Fc Chimera, CF (R&D Systems Cat#358-MT/CF) (human, UniProt P08581 25-932).
T14 construct: Bought from R&D Systems; also called HGF R/Fc; hepatocyte growth factor receptor (HGF R/c-Met); not shown: Fc of the bought chimera
The assay is described as above.

The target in assay [15] is T15, rHuman IGF-1 sR, (IGF-1 sR), CF (R&D Systems Cat#391-GR) (human, UniProt P08069 31-932).
T15 construct: Bought from R&D Systems and called a soluble receptor; also called insulin-like growth factor-1 soluble receptor
Described as above.

Assay [16] concerns the target T16, rHuman Notch-1/Fc Chimera, CF (R&D Systems Cat#3647-TK) (human, UniProt P46531 19-526).
T16 construct: Bought from R&D Systems; not shown: Fc of the bought chimera
The description is as above.

Assay [17] deals with T17, rHuman ErbB2/Fc Chimera, CF (R&D Systems Cat#1129-ER) (human, UniProt P04626 23-652).
T17 construct: Bought from R&D Systems; also called human epidermal growth factor 2 receptor (ErbB2); not shown: Fc of the bought chimera
The assay is described as above.

For assay [18], the target named is T18, Recombinant Human DLL4 (R&D Systems Cat#1506-D4/CF) (human, UniProt Q9NR61 27-524).
T18 construct: Bought from R&D Systems; also called rHuman DLL4; delta-like protein 4
Described as above.

Assay [19] addresses T19, rHuman CD44/Fc Chimera, CF (R&D Systems Cat#3660-CD) (human, UniProt P16070 21-220).
T19 construct: Bought from R&D Systems; not shown: Fc of the bought chimera
The description is as above.

B1: Fab VH1-46_IGHD6-6*01_IGHJ1*01 & L6_IGKJ1*01 (Fab, V domains shown)
VH: QVQLVQSGAEVKKPGASVKVSCKASGYTFTSYYMHWVRQAPGQGLEWMGIINPSGGSTSYAQKFQGRVTMTRDTSTSTVYMELSSLRSEDTAVYYCAREEYSSSSAEYFQHWGQGTLVTVSS
VL: not shown
notes: Only variable domains are tied to the molecule; Tested as a Fab made in E. coli: heavy chain from Plasmid A (CH1 constant region, His6 and Flag tags), kappa light chain from Plasmid C (kappa CL); also called parent Hit Fab against DLL4; VH1-46_IGHD6-6*01_IGHJ1*01 & L6_IGKJ1*01 (parental)
Consider B1, for which the ECL signal in assay [1] stood at 424 ECL signal; in [2] it was 315 ECL signal; in assay [3], 396 ECL signal; in assay [4], 13200 ECL signal; in assay [5] it was 324 ECL signal; in [6], 492 ECL signal.

B2: Fab VH6-1_IGHD3-3*01_IGHJ4*01 & V4-3_IGLJ4*01 (Fab, V domains shown)
VH: QVQLQQSGPGLVKPSQTLSLTCAISGDSVSSNSAAWNWIRQSPSRGLEWLGRTYYRSKWYNDYAVSVKSRITINPDTSKNQFSLQLNSVTPEDTAVYYCAREYYDFWSGYYTDYFDYWGQGTLVTVSS
VL: QPVLTQPTSLSASPGASARLTCTLRSGINLGSYRIFWYQQKPESPPRYLLSYYSDSSKHQGSGVPSRFSGSKDASSNAGILVISGLQSEDEADYYCMIWHSSASFVFGGGTQLIIL
notes: Tested as a purified germline Fab made in E. coli; The VH was cloned into plasmid A (CH1 constant region, His6 and Flag tags) and the lambda VL into plasmid E (lambda CL)
Turning to B2, the ECL signal in assay [7] worked out at 938; in assay [8], 442; in assay [9], 472; in assay [10], 431.

B3: Fab VH1-46_IGHD3-10*01_IGHJ4*01 & B3_IGKJ1*01 (Fab, V domains shown)
VH: QVQLVQSGAEVKKPGASVKVSCKASGYTFTSYYMHWVRQAPGQGLEWMGIINPSGGSTSYAQKFQGRVTMTRDTSTSTVYMELSSLRSEDTAVYYCAREYYYGSGSYYNDYFDYWGQGTLVTVSS
VL: not shown
notes: Tested as a Fab made in E. coli; VH was cloned into Plasmid A (CH1 constant region, His6 and Flag tags); The kappa VL was cloned into Plasmid C (kappa CL)
As to B3, the ECL signal worked out at 4890 in assay [11]; 827 in assay [12]; 692 in assay [13]; 839 in assay [14]; 630 in assay [15]; 958 in assay [16]. For the same molecule, the values for the ECL signal in assay [17], in assay [18] and in assay [19] were 671, 981 and 693, respectively.
